Test results reported in patent US20210238279A1 (Johns Hopkins, published 2021).

Key:
[1] = molecular target: T1, monomeric human ZnT8 CTD-His antigen (aa 275-369) (human, UniProt Q8IWU4 275-369); assay: ELISA, monomeric CTD-His on Ni-NTA plate
T1 construct: range 275-369; Immobilized on Ni-NTA plates through the C-terminal poly-histidine tag; also called CTD-His monomer; monomeric CTD antigen; not shown: C-terminal poly-histidine tag
T1 sequence (looked up): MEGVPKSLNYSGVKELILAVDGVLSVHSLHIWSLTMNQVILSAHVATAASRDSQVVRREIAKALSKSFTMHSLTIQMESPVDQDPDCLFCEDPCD
Excerpt: Error bars represent standard deviations. (FIG. 1B) ELISA against a monomeric CTD antigen immobilized to Ni-NTA plate via a C-terminal poly-histidine tag. CTDA and NTDA were used a positive and negative control, respectively (Z>0.5).
Materials and Methods Generating hybridoma. Four pairs of male/female homozygous Slc30a8-1- mice were immunized by weekly intraperitoneal injections of a human ZnT8 antigen (the R325 variant) in reconstituted proteoliposomes. All experiments with mice were approved by the Institutional Animal Care and Use Committee of Johns Hopkins University School of Medicine. Serum antibody titering and validation of anti-ZnT8 specificity by CRISPR/Cas9 ZnT8-knockout were described previously (36). Following a final immunization boost, spleens were isolated. Splenocytes were fused with an immortalized myeloma cell line Sp2/0-Ag14 (CRL-1581, ATCC) at a 4:1 splenocytes-to-myeloma ratio by adding 1 ml of 50% PEG1500 (w/v, Roche) to the cell mixture drop-by-drop over 1 min (37). […] Bound antibodies were detected by an HRP-conjugated goat anti-mouse secondary antibody (Invitrogen, cat. #62-6500) with 1:3000 dilutions in assay buffer, followed by ABTS colorimetric reaction (Life Technologies) and signal readout at 415 nm on a plate reader (Molecular Device). […]

human ZnT8-His = molecular target: T2, human ZnT8-His (human, UniProt Q8IWU4-2 1-320, limits assumed); assay: ELISA, ZnT8-His on Ni-NTA plate, HRP-conjugated secondary antibody; binder taken from the axis label and paragraph 166; curve taken as human
T2 construct: Over-expressed in HEK293 cells, solubilized with DDM and immobilized on Ni-NTA plates (native or unfolded with 2% SDS), or SDS-denatured on immunoblots; also called human ZnT8 with C-terminal poly-histidine tag; not shown: C-terminal poly-histidine tag
T2 sequence (looked up): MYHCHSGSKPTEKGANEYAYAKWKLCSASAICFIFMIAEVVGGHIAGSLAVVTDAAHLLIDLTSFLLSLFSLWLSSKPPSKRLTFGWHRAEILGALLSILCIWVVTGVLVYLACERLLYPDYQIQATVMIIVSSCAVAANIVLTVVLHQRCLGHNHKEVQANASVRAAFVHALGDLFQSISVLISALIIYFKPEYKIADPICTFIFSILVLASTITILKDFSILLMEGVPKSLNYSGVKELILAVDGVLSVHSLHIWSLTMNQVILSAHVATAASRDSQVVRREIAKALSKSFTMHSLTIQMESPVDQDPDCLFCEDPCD
Excerpt: FIG. 7A-7D. mAb binding specificities (FIG. 7A) mAb binding to ZnT8-His immobilized to Ni-NTA plate. Bound mAb20 (red) or mAb39 (magenta) was detected by an HRP-conjugated secondary antibody. Solid lines are least-squares fits of binding datapoints to a one-component binding process. Error bars are standard errors (n=8). (FIG. 7B) SDS-denatured mouse ZnT8-His (labeled as M) and human ZnT8-His (labeled as H) on immunoblots were detected by mAb20 or mAb39 as indicated. […] (FIG. 7C) Detection of endogenous human ZnT8 in EndoC-βH cells by mAb20 or […] immunoblotting. An equal amount of EndoC-βH lysate (5 μg total protein) was loaded to each lane. (FIG. 7D) Immunoblotting of HEK lysates with or with over-expression of a ZnT homolog as indicated. An approximately equal amount of total lysate protein (5 μg) was located to each lane, probed by either mAb20, mAb39, or anti-FALG antibody as indicated. FIG. 8. HTRF response to human ZnT8, mouse ZnT8 and human ZnT3.
Binding specificities. […] Of note, the epitope-masking effect of ZnT8 immobilization weakened the apparent binding affinities of both mAbs as compared to the affinities determined by flow-cytometry, and such a weakening effect was more pronounced for mAb39, probably due to a closer proximity of the mAb39 epitope to the C-terminal His-tag. Next, we compared the immunoreactivities of mAbs to denatured ZnT8.

B1: mAb39 (antibody, V domains shown)
VH: QVQLQQPGAELVKPGASVKLSCKASGYSFTTYWMHWVKQRPGQGLEWVGDINPRNGRTNYNEKSKSKATLTVDISSSTVYMQVSSLTSEDSAVYYCAIWSGAMDYWGPGTSVTVSS
VL: DVVMTQTPLSLPVSLGDQPSISCKSSQSLVHNNGNTYLHWYLQKPGQSPKLLIYKVSNRFSGVPDRFSGSGSGTDFTLKISRVEAEDLGVYFCSQTTHVPPTFGGGTKLEIKR
notes: Mouse hybridoma mAb purified on protein A/G; In some assays it was labelled with Alexa Fluor 555 or d2; also called monoclonal antibody mAb39; anti-ZnT8 mAb39
With B1 the binding result [1] was “no binding” and the “EC50 (read off the curve)” value (human ZnT8-His) was about 10 nM.
